This note sets out measurements from paper PMC5031558 (2016).

Common to all, as to assay: FP, FITC-Ahx peptide
For one assay, the target named is T1, p97_PIM (Homo sapiens (Human), UniProt P55072).
T1 chain: TEDNDDDLYG

Another assay addresses T2, SPATA2_PIM (Homo sapiens (Human), UniProt Q9UM82).
T2 chain: DVDLYTDSEPR

The target of the next assay is T3, OTULIN_PIM (Homo sapiens (Human), UniProt Q96BN8).
T3 chain: AEHEEDMYRAADEIEKEKE

A word on the Kd: it is the constant that tells how readily two partners part at equilibrium. The low end stands for higher affinity, the high end for lower affinity.

B1: PNGase_PUB (protein)
chain: GSASPAVAELCQNTPETFLEASKLLLTYADNILRNPNDEKYRSIRIGNTAFSTRLLPVRGAVECLFEMGFEEGETHLIFPKKASVEQLQKIRDLIAIER
B1: the results for the dissociation constant (Kd) with p97_PIM and with SPATA2_PIM were 2.1 µM and above 100 µM, respectively.

B2: HOIP_PUB (protein)
chain: MPGEEEERAFLVAREELASALRRDSGQAFSLEQLRPLLASSLPLAARYLQLDAARLVRCNAHGEPRNYLNTLSTALNILEKYGRNLLSPQRPRYWRGVKFNNPVFRSTVDAVQGGRDVLRLYGYTEEQPDGLSFPEGQEEPDEHQVATVTLEVLLLRTELSLLLQNTHPRQQALEQLLEDKVED
Turning to B2, the equilibrium dissociation constant (Kd) with p97_PIM was 10.2 µM; with SPATA2_PIM, 0.36 µM.

B3: SPATA2_PUB (protein)
chain: MDTKFKDDLFRKYVQFHESKVDTTTSRQRPGSDECLRVAASTLLSLHKVDPFYRFRLIQFYEVVESSLRSLSSSSLRALHGAFSMLETVGINLFLYPWKKEFRSIKTYTGPFVYYVKSTLLEEDIRAILSCMGYTPELGTAYKLRELVETLQVKMVSFELFLAKVECEQMLEIHSQVKDKGYSELDIVSERKSSAEDVRGCSDALRRRAEGRE
With B3, the dissociation constant Kd in the assay with p97_PIM, with SPATA2_PIM and in the assay with OTULIN_PIM was above 100 µM throughout.

B4: UBXN6_PUB (protein)
chain: STDPVAASIMKIYTFNKDQDRVKLGVDTIAKYLDNIHLHPEEEKYRKIKLQNKVFQERINCLEGTHEFFEAIGFQKVLLPAQDQEDPEEFYVLSETTLAQPQSLERHKEQLLAAE
Regarding B4, the Kd is 27.1 µM in the assay with p97_PIM and above 100 µM in the assay with SPATA2_PIM.
